# IntAct's records for PubMed 19797078
# B1: Ribosome assembly factor MRT4 (Saccharomyces cerevisiae), P33201 (parent)
# chain: MPRSKRSKLVTLAQTDKKGRENKERIFDEVREALDTYRYVWVLHLDDVRTPVLQEIRTSWAGSKLIMGKRKVLQKALGEKREEEYKENLYQLSKLCSGVTGLLFTDEDVNTVKEYFKSYVRSDYSRPNTKAPLTFTIPEGIVYSRGGQIPAEEDVPMIHSLEPTMRNKFEIPTKIKAGKITIDSPYLVCTEGEKLDVRQALILKQFGIAASEFKVKVSAYYDNDSSTVESTNINME
# partner: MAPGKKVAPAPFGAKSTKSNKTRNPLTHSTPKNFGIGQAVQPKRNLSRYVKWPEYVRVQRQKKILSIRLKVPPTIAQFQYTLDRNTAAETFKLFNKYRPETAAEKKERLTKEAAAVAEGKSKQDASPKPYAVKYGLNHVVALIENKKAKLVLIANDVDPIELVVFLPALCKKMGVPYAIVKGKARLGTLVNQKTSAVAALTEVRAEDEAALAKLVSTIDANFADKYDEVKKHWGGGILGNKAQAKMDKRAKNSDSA
# B2: Tyrosine-protein phosphatase YVH1 (Saccharomyces cerevisiae), Q02256 (parent)
# chain: MAGNANSVDEEVTRILGGIYLGGIRPIIDHRPLGAEFNITHILSVIKFQVIPEYLIRKGYTLKNIPIDDDDVTDVLQYFDETNRFIDQCLFPNEVEYSPRLVDFKKKPQRGAVFAHCQAGLSRSVTFIVAYLMYRYGLSLSMAMHAVKRKKPSVEPNENFMEQLHLFEKMGGDFVDFDNPAYKQWKLKQSIKLDPSGSELVSNSGMFKDSESSQDLDKLTEAEKSKVTAVRCKKCRTKLALSTSFIAHDPPSKESSEGHFIKRAANSHRIIDIQESQANCSHFFIEPLKWMQPELQGKQELEGKFSCPGCSSKVGGYNWKGSRCSCGKWVIPAIHLQTSKVDQFPLQSTALPNMVNFESEKVNR
# partner: B1 partner
# Variants of: B1
# Conditions: with rl8a_yeast RPL8A
row,Variant,effect of a mutation on the interaction
1,G68D,decreasing interaction

# Variants of: B2
# Conditions: with rl8a_yeast RPL8A
row,Variant,effect of a mutation on the interaction
1,C117S,decreasing interaction
